Here are results for 3 molecules from US20090304651A1 (published 2009).

Read-outs that look alike come from different tables or passages of the source.

Assay [1] deals with T1, recombinant human IGF-II (Insulin-like Growth Factor II) (human, UniProt P01344 25-91, biotinylated (Biotinyl-IGF-II, GroPep) where immobilised in SPR, site not stated; not biotinylated in ITC and as SPR analyte).
T1 construct: also called IGF2; IGF-2
The experiment in a line: SPR (Biacore). Background: Surface plasmon resonance follows binding to a sensor surface in real time, without labels.

In assay [2] the target is T1, recombinant human IGF-II (Insulin-like …). The experiment in a line: ITC, IGF-II titrated into domain 11. As to the method:
Calorimetric measurements were performed using a VP-ITC microcalorimeter (MicroCal). All solutions were thoroughly degassed before use by stirring under vacuum. […] The sample cell contained either wild type domain 11 (7 uM) or the E1544A mutant (8 μM), also in HBS-E buffer. To correct for the heat effects of dilution and mixing, reaction heats obtained from a control experiment, in which IGF2 was injected into HBS-E, were subtracted. Calorimetric data were analysed using MicroCal ORIGIN software (version 5.0) supplied with the instrument. Thermodynamic parameters were derived by fitting the binding isotherms to a single-site binding model. Values for dissociation affinity constants (KD) were determined from duplicate experiments.
In order to validate the SPR sensorgram data, ITC was used to assess the binding affinity between domain 11 and IGF-II. The affinity of the E1544A mutant was also assessed by ITC in order to confirm whether use of a second technique agreed as to the apparent increase in affinity (FIG. 6 and Table 6). Titrations were performed using 17×15 μl injections of 40 μM IGF-II (after an initial 7.51 injection) into the reaction cell containing wild type domain 11 or the E1544A mutant. […] The two fold differences may be simply accounted for by the fidelity of both techniques.
(Isothermal titration calorimetry measures the heat released or taken up as one component is titrated into another.)

Assay [3] has the same target. The experiment in a line: SPR, IGF-II immobilised, kinetic fit. On the procedure: (§1) Duplicate analyte injections were performed at concentrations of 4096, 2048, 1024, 512, 256, 128, 64, 32, 16 and 8 nM.
(§2) Kinetic analysis by Surface Plasmon Resonance (SPR) was conducted on a BIAcore 3000 biosensor (BIAcore, Uppsala, Sweden) at 25° C. in HBS-EP (10 mM HEPES, pH 7.4, 150 mM NaCl, 3 mM EDTA, 0.005% surfactant P20) at a flow rate of 40 μl/min. […] Kinetic experiments consisted of a two minute injection of analyte followed by a 100 s dissociation phase in running buffer, after which the binding surface was regenerated with a 2 minute injection of 2 M MgCl₂. A blank flow cell was used for in-line reference subtraction of changes due to differences in refractive index of running buffer versus sample and a buffer-only injection was used to subtract instrument noise and drift. Injections were performed in duplicate for each concentration and in a randomised order. Kinetic parameters were determined by global fitting of sensorgrams to a two-state (conformational change) binding model using BIAevaluation software version 4.0.1. In all cases the minor component made an insignificant contribution to the overall affinity and as such only the kinetic parameters of the major binding component were used. For each interaction the dissociation affinity constant (KD) was also calculated by fitting of the response of each concentration at equilibrium to a steady-state affinity model using BIAevaluation.

Assay [4] shares this target. The experiment in a line: SPR, IGF-II immobilised, kinetic fit. The method in brief:
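Domain 11 proteins made in Pichia pastoris and purified by His-tag were passed in duplicate, in random order, over ~50 RU of biotinylated IGF-II bound to a streptavidin Sensor Chip SA on a BIAcore 3000 (25° C, HBS-EP, 40 μl/min, 2 min injections, 100 s dissociation, 2 M MgCl₂ regeneration), at 4096–8 nM, or 16384–32 nM for three constructs. Kinetic rate constants and Kd were derived by global sensorgram fitting in BIAevaluation 4.0.1, with blank-flow-cell and buffer-injection signals subtracted first.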
This is another data set of the same source.

Assay [5] has the same target. The assay is described as follows: SPR, IGF-II immobilised, steady state. On the procedure:
as §1, §2

Assay [6] shares this target. The assay is described as follows: SPR, IGF-II immobilised, steady state. The method in brief:
(§3)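 Domain 11 proteins were secreted from Pichia pastoris, purified by His-tag and injected in duplicate over about 50 RU of biotinylated IGF-II captured on a streptavidin Sensor Chip SA in a BIAcore 3000 at 25° C, in HBS-EP at 40 μl/min with 2 min injections. Analyte concentrations spanned 4096–8 nM, or 16384–32 nM for three constructs, and blank-flow-cell and buffer-injection signals were subtracted. Kd was obtained in BIAevaluation by fitting the equilibrium response at each concentration to a steady-state affinity model.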
The source holds these as a separate data set.

For assay [7] the target is unchanged. The experiment in a line: SPR, steady-state KD relative to wild type. On the procedure:
as §1, §2

For assay [8] the target is unchanged. The assay is described as follows: SPR, steady-state KD relative to wild type. The method in brief: as §3
This is another data set of the same source.

T1 sequence (P01344 25-91 limits assumed): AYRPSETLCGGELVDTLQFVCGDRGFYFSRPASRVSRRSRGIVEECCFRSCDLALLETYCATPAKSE

B1: wild type IGF2R domain 11 (amino acids 1511-1650) with C-terminal His6 tag, from Pichia pastoris (receptor)
chain: NEHDDCQVTNPSTGHLFDLSSLSGRAGFTAAYSEKGLVYMSICGENENCPPGVGACFGQTRISVGKANKRLRYVDQVLQLVYKDGSPCPSKSGLSYKSVISFVCRPEAGPTNRPMLISLDKQTCTLFFSWHTPLACEQATHHHHHH
notes: also called WT; wild type domain 11
Turning to B1, the Kd (commonly the free concentration of one partner at which half of the binding sites on the other are occupied at equilibrium, for simple one-to-one binding) in assay [1] amounted to 103 nM; in assay [2], 150 nM; in assay [3], 102 nM; in assay [4], 119 nM; in assay [5] it was 103 nM; in assay [6] it was 103 nM. For the same molecule, the figures for the koff in assay [3] and in assay [4] were 0.053 s⁻¹ and 0.0787 s⁻¹, respectively. The kon (as a rule, the second-order rate constant of association) in assay [3] came to 525000 M⁻¹ s⁻¹; in assay [4], 662000 M⁻¹ s⁻¹. In addition, the “Relative Affinity” value in assay [7] and in assay [8] was 1 fold (wild type = 1.00) throughout.

B2: IGF2R domain 11 E1544K (amino acids 1511-1650, C-terminal His6 tag, from Pichia pastoris) (receptor)
chain: NEHDDCQVTNPSTGHLFDLSSLSGRAGFTAAYSKKGLVYMSICGENENCPPGVGACFGQTRISVGKANKRLRYVDQVLQLVYKDGSPCPSKSGLSYKSVISFVCRPEAGPTNRPMLISLDKQTCTLFFSWHTPLACEQATHHHHHH
notes: also called enhanced mutant
For the molecule B2, the Kd in assay [1] was 16.9 nM; in assay [2] it was 26.4 nM; in assay [3] it was 15.2 nM; in assay [4] it was 20.5 nM; in assay [5], 16.9 nM; in assay [6] it was 16.9 nM. For the same molecule, the koff (in general, the rate constant with which the complex falls apart) in assay [3] is 0.023 s⁻¹; in assay [4] it was 0.0406 s⁻¹. Moreover, the kon was 1.52e+06 M⁻¹ s⁻¹ in assay [3] and 2.02e+06 M⁻¹ s⁻¹ in assay [4]. In addition, the “Relative Affinity” value in assay [7] and in assay [8] was 6.12 fold (wild type = 1.00) each time.

B3: IGF2R domain 11 E1544A (amino acids 1511-1650, C-terminal His6 tag, from Pichia pastoris) (receptor)
chain: NEHDDCQVTNPSTGHLFDLSSLSGRAGFTAAYSAKGLVYMSICGENENCPPGVGACFGQTRISVGKANKRLRYVDQVLQLVYKDGSPCPSKSGLSYKSVISFVCRPEAGPTNRPMLISLDKQTCTLFFSWHTPLACEQATHHHHHH
Regarding B3, the Kd came out at 37 nM in assay [1]; 81.4 nM in assay [2]; 35.9 nM in assay [3]; 45.5 nM in assay [4]; 37 nM in assay [5]; 37 nM in assay [6]. In addition, the figures for the koff in assay [3] and in assay [4] were 0.033 s⁻¹ and 0.0558 s⁻¹, respectively. Also, the kon was 934000 M⁻¹ s⁻¹ in assay [3] and 1.23e+06 M⁻¹ s⁻¹ in assay [4]. For the same molecule, the “Relative Affinity” value in assay [7] and in assay [8] was 2.79 fold (wild type = 1.00) throughout.
